± gives the standard deviation of the averaged measurements.
B1: library; a variant is named by its letters at N, in order (parent)
chain: GCUGUCACCGGUGUAUUACCCUAGUGGUCGACCGGUCUGAUGAGUCUNNNNNNAGACGAAACAGC

Columns and labels:
hypoxanthine [1] = variants of: B1; test: normalized RNA/DNA level with ligand (relative to sTRSVctl = 100) (log10 (% of sTRSVctl)); ligand: hypoxanthine (xanthine aptamer); higher = less ribozyme self-cleavage, higher mRNA level; settings: ligand concentration (+) RNA-Seq: 5 mM, HEK293T, reporter: mCherry (pCS4076), ligand present: yes
Procedure, shortened: (§1)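 HEK293T cells were transfected with library plasmids carrying ribozyme switches linked to an mCherry reporter, or an eGFP reporter in some ligand experiments, at 4 µg per well of a 6-well plate, with any ligand added 1 h beforehand. After 72 h, total RNA was extracted with EDTA, reverse-transcribed, amplified, barcoded and sequenced. RNA level was defined as RNA reads over DNA reads, normalized to a spiked-in non-cleaving sequence or to the top-ranked sequences. That value was multiplied by 100 and converted to log10, the top set was 25 sequences, and only sequences with ≥100 DNA reads were retained.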

hypoxanthine [2] = variants of: B1; test: normalized RNA/DNA level without ligand (relative to sTRSVctl = 100) (log10 (% of sTRSVctl)); ligand: hypoxanthine (xanthine aptamer); higher = less ribozyme self-cleavage, higher mRNA level; settings: HEK293T, reporter: mCherry (pCS4076), ligand present: no
Procedure, shortened: as §1

Variant	normalized RNA/DNA level with ligand (log10) (hypoxanthine [1])	normalized RNA/DNA level without ligand (log10) (hypoxanthine [2])
GCUGUCACCGGUGUAUUACCCUAGUGGUCGACCGGUCUGAUGAGUCUAGCAGUAGACGAAACAGC [AGCAGU]	1.83 ± 0.03	1.44 ± 0.036
GCUGUCACCGGUGUAUUACCCUAGUGGUCGACCGGUCUGAUGAGUCUUGCAGCAGACGAAACAGC [UGCAGC]	1.98 ± 0.074	1.83 ± 0.055
GCUGUCACCGGUGUAUUACCCUAGUGGUCGACCGGUCUGAUGAGUCUAGCAUCAGACGAAACAGC [AGCAUC]	2.07 ± 0.038	1.96 ± 0.025
GCUGUCACCGGUGUAUUACCCUAGUGGUCGACCGGUCUGAUGAGUCUGGCCACAGACGAAACAGC [GGCCAC]	1.997 ± 0.011	1.861 ± 0.0085
GCUGUCACCGGUGUAUUACCCUAGUGGUCGACCGGUCUGAUGAGUCUGGCCAGAGACGAAACAGC [GGCCAG]	1.89 ± 0.026	1.67 ± 0.033
GCUGUCACCGGUGUAUUACCCUAGUGGUCGACCGGUCUGAUGAGUCUGGCCAAAGACGAAACAGC [GGCCAA]	1.934 ± 0.015	1.87 ± 0.022
GCUGUCACCGGUGUAUUACCCUAGUGGUCGACCGGUCUGAUGAGUCUGGCCAUAGACGAAACAGC [GGCCAU]	1.957 ± 0.003	1.919 ± 0.018
GCUGUCACCGGUGUAUUACCCUAGUGGUCGACCGGUCUGAUGAGUCUCGCACUAGACGAAACAGC [CGCACU]	2 ± 0.11	1.89 ± 0.066
GCUGUCACCGGUGUAUUACCCUAGUGGUCGACCGGUCUGAUGAGUCUCGCACCAGACGAAACAGC [CGCACC]	1.93 ± 0.093	1.9 ± 0.028
GCUGUCACCGGUGUAUUACCCUAGUGGUCGACCGGUCUGAUGAGUCUCGCACGAGACGAAACAGC [CGCACG]	1.95 ± 0.089	1.87 ± 0.044
GCUGUCACCGGUGUAUUACCCUAGUGGUCGACCGGUCUGAUGAGUCUUGCCAUAGACGAAACAGC [UGCCAU]	1.909 ± 0.0083	1.817 ± 0.015
GCUGUCACCGGUGUAUUACCCUAGUGGUCGACCGGUCUGAUGAGUCUUGCCAAAGACGAAACAGC [UGCCAA]	1.906 ± 0.018	1.84 ± 0.021
GCUGUCACCGGUGUAUUACCCUAGUGGUCGACCGGUCUGAUGAGUCUCGCAGUAGACGAAACAGC [CGCAGU]	1.938 ± 0.0028	1.86 ± 0.026
GCUGUCACCGGUGUAUUACCCUAGUGGUCGACCGGUCUGAUGAGUCUCGCAGCAGACGAAACAGC [CGCAGC]	1.96 ± 0.041	1.87 ± 0.025
GCUGUCACCGGUGUAUUACCCUAGUGGUCGACCGGUCUGAUGAGUCUCGCAGAAGACGAAACAGC [CGCAGA]	1.9 ± 0.029	1.81 ± 0.082
GCUGUCACCGGUGUAUUACCCUAGUGGUCGACCGGUCUGAUGAGUCUCGCAGGAGACGAAACAGC [CGCAGG]	1.82 ± 0.096	1.348 ± 0.011
GCUGUCACCGGUGUAUUACCCUAGUGGUCGACCGGUCUGAUGAGUCUCGCCCCAGACGAAACAGC [CGCCCC]	1.971 ± 0.013	1.922 ± 0.0052
GCUGUCACCGGUGUAUUACCCUAGUGGUCGACCGGUCUGAUGAGUCUCGCCCAAGACGAAACAGC [CGCCCA]	1.96 ± 0.06	1.92 ± 0.041
GCUGUCACCGGUGUAUUACCCUAGUGGUCGACCGGUCUGAUGAGUCUCGCCACAGACGAAACAGC [CGCCAC]	1.92 ± 0.043	1.84 ± 0.05
GCUGUCACCGGUGUAUUACCCUAGUGGUCGACCGGUCUGAUGAGUCUCGCCAUAGACGAAACAGC [CGCCAU]	1.88 ± 0.046	1.87 ± 0.021
GCUGUCACCGGUGUAUUACCCUAGUGGUCGACCGGUCUGAUGAGUCUCGCCAAAGACGAAACAGC [CGCCAA]	1.94 ± 0.02	1.82 ± 0.064

Variant	normalized RNA/DNA level with ligand (log10) (hypoxanthine [1])	normalized RNA/DNA level without ligand (log10) (hypoxanthine [2])
GCUGUCACCGGUGUAUUACCCUAGUGGUCGACCGGUCUGAUGAGUCUCGCAUGAGACGAAACAGC [CGCAUG]	1.93 ± 0.059	1.81 ± 0.057
GCUGUCACCGGUGUAUUACCCUAGUGGUCGACCGGUCUGAUGAGUCUCGCAUUAGACGAAACAGC [CGCAUU]	1.942 ± 0.0093	1.82 ± 0.036
GCUGUCACCGGUGUAUUACCCUAGUGGUCGACCGGUCUGAUGAGUCUCGCAUAAGACGAAACAGC [CGCAUA]	1.9 ± 0.052	1.69 ± 0.033
GCUGUCACCGGUGUAUUACCCUAGUGGUCGACCGGUCUGAUGAGUCUUGCAUGAGACGAAACAGC [UGCAUG]	1.9 ± 0.028	1.75 ± 0.024
GCUGUCACCGGUGUAUUACCCUAGUGGUCGACCGGUCUGAUGAGUCUUGCAUUAGACGAAACAGC [UGCAUU]	1.981 ± 0.01	1.88 ± 0.018
GCUGUCACCGGUGUAUUACCCUAGUGGUCGACCGGUCUGAUGAGUCUUGCAUAAGACGAAACAGC [UGCAUA]	1.964 ± 0.0062	1.83 ± 0.022
GCUGUCACCGGUGUAUUACCCUAGUGGUCGACCGGUCUGAUGAGUCUUGCAUCAGACGAAACAGC [UGCAUC]	2.02 ± 0.031	2.04 ± 0.052
GCUGUCACCGGUGUAUUACCCUAGUGGUCGACCGGUCUGAUGAGUCUGGCAUCAGACGAAACAGC [GGCAUC]	1.97 ± 0.074	1.91 ± 0.057
GCUGUCACCGGUGUAUUACCCUAGUGGUCGACCGGUCUGAUGAGUCUGGCAUAAGACGAAACAGC [GGCAUA]	1.941 ± 0.0052	1.86 ± 0.032
GCUGUCACCGGUGUAUUACCCUAGUGGUCGACCGGUCUGAUGAGUCUGGCAUUAGACGAAACAGC [GGCAUU]	1.958 ± 0.0075	1.925 ± 0.0063
GCUGUCACCGGUGUAUUACCCUAGUGGUCGACCGGUCUGAUGAGUCUAGCCACAGACGAAACAGC [AGCCAC]	1.931 ± 0.014	1.8318 ± 6.2e-05
GCUGUCACCGGUGUAUUACCCUAGUGGUCGACCGGUCUGAUGAGUCUUGCACCAGACGAAACAGC [UGCACC]	1.92 ± 0.057	1.93 ± 0.024
GCUGUCACCGGUGUAUUACCCUAGUGGUCGACCGGUCUGAUGAGUCUUGCACGAGACGAAACAGC [UGCACG]	1.923 ± 0.014	1.76 ± 0.038
GCUGUCACCGGUGUAUUACCCUAGUGGUCGACCGGUCUGAUGAGUCUUGCACUAGACGAAACAGC [UGCACU]	1.94 ± 0.088	1.9 ± 0.0073
GCUGUCACCGGUGUAUUACCCUAGUGGUCGACCGGUCUGAUGAGUCUUGCACAAGACGAAACAGC [UGCACA]	1.934 ± 0.019	1.843 ± 0.0094
GCUGUCACCGGUGUAUUACCCUAGUGGUCGACCGGUCUGAUGAGUCUGGCACUAGACGAAACAGC [GGCACU]	2.011 ± 0.0022	1.99 ± 0.025
GCUGUCACCGGUGUAUUACCCUAGUGGUCGACCGGUCUGAUGAGUCUGGCACCAGACGAAACAGC [GGCACC]	1.92 ± 0.06	1.85 ± 0.021
GCUGUCACCGGUGUAUUACCCUAGUGGUCGACCGGUCUGAUGAGUCUGGCACGAGACGAAACAGC [GGCACG]	1.92 ± 0.022	1.66 ± 0.029
GCUGUCACCGGUGUAUUACCCUAGUGGUCGACCGGUCUGAUGAGUCUGGCCCAAGACGAAACAGC [GGCCCA]	1.95 ± 0.026	1.97 ± 0.024
GCUGUCACCGGUGUAUUACCCUAGUGGUCGACCGGUCUGAUGAGUCUAGCACUAGACGAAACAGC [AGCACU]	1.96 ± 0.039	1.8853 ± 0.00075
GCUGUCACCGGUGUAUUACCCUAGUGGUCGACCGGUCUGAUGAGUCUGGCAGGAGACGAAACAGC [GGCAGG]	1.874 ± 0.0049	1.496 ± 0.0048
